Measurements from patent US20200147235A1 (AbbVie / Abbott, published 2020).

Tests used:
[1] = biological target: T1, Cynomolgus monkey CD98 expressed on stably transfected 3T12 cells (cynomolgus monkey); assay: flow cytometry, 3T12 cells expressing cynomolgus CD98
T1 construct: whole, on cells; also called cyCD98
Experimental: (§1) Briefly, binding kinetics of anti-CD98 chimera mAbs for human and cynomolgus CD98 ECDs were determined by surface plasmon resonance-based measurements as described in Example 4. Table 10 reported the association and dissociation rate constants for CD98 binding, kₐ (M⁻¹s⁻¹) and kd (s⁻¹), and the equilibrium dissociation constant KD (M) of the interaction between antibodies and the target antigen. Binding of anti-CD98 chimera mAbs for CD98 on cell surface was evaluated by flow cytometry against CHO-K1 cell line stably transfected to express human CD98 and 3T12 cell line stably transfected to express cynomolgus monkey CD98.

[2] = biological target: T2, Human CD98 ECD with C-terminal His-tag (human, UniProt P08195 105-529); assay: SPR Biacore, anti-Fc capture of mAb, CD98 ECD analyte
T2 construct: also called huCD98 ECD; recombinant human CD98 extracellular domain
T2 sequence: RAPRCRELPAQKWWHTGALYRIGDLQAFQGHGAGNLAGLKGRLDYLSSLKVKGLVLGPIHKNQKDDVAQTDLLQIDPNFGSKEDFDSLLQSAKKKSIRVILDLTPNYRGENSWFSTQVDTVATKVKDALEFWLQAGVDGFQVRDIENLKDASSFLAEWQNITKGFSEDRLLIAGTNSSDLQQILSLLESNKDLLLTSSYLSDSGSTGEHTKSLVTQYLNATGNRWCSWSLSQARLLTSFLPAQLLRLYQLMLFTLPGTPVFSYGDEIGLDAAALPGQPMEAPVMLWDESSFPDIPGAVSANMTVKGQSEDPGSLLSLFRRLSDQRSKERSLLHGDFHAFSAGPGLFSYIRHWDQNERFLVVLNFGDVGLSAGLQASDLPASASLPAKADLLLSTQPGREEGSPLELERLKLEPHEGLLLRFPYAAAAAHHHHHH
Experimental: (§2) The binding kinetics of these purified mouse and rat monoclonal anti-CD98 antibodies for purified recombinant CD98 protein (extracellular domain. ECD) were determined by surface plasmon resonance-based measurements made on Biacore T100/T200 instruments (GE Healthcare, Piscataway, N.J.) at 25° C. using an anti-Fc capture assay approach. Binding kinetic measurements were made in the assay buffer HBS-EP+: 10 mM Hepes, pH 7.4, 150 mM NaCl, 3 mM EDTA, 0.05% Tween 20). For example, approximately 8000 RU of anti-Fc (species specific) polyclonal antibody (Thermo Fisher Scientific Inc. Rockford, Ill.) diluted in 10 mM sodium acetate (pH 4.5) was directly immobilized across a CM5 research grade biosensor chip using a standard amine coupling kit according to manufacturer's instructions and procedures at 25 μg/ml. Unreacted moieties on the biosensor surface were blocked with ethanolamine. The test antibody to be captured as a ligand was diluted in running buffer to ˜0.5 μg/mL and injected over anti-Fc surface at a flow rate of 10 μL/min, CD98 binding and dissociation were observed under a continuous flow rate of 80 μL/min. Human and cynomolgus monkey CD98 ECDs, both with a C-terminal His-tag, are used for this study (Table 3). After each cycle the anti-Fc capture surface was regenerated using 10 mM Glycine-HCl, pH 1.5. During the assay, all measurements were referenced against the capture surface alone (i.e., with no captured test antibody) and buffer-only injections (no antigen) were used for double referencing. For kinetic analysis, rate equations derived from the 1:1 Langmuir binding model were fitted simultaneously, globally and with mass transfer term included to multiple referenced antigen binding curves using Biacore T100T200 Evaluation software.
(§3) Briefly, binding kinetics of anti-CD98 chimera mAbs for human and cynomolgus CD98 ECDs were determined by surface plasmon resonance-based measurements as described in Example 4.

[3] = biological target: T3, Cynomolgus monkey CD98 ECD with C-terminal His-tag (cynomolgus monkey, UniProt P08195 105-529 (human entry)); assay: as above
T3 construct: also called cyCD98 ECD; recombinant cynomolgus monkey CD98 extracellular domain
T3 chain: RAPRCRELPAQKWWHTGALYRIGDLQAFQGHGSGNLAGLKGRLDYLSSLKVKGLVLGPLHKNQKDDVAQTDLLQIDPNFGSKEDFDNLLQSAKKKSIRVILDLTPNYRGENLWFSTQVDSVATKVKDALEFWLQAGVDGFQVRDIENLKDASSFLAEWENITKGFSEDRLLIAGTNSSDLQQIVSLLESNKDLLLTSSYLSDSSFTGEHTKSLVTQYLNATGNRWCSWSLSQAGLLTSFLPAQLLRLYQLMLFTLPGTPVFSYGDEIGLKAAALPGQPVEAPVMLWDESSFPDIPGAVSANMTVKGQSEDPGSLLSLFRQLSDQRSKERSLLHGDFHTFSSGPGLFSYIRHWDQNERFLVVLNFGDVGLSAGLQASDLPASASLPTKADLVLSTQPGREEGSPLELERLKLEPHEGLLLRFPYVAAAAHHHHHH
Experimental: as §2, §3

[4] = biological target: T4, Human CD98 expressed on stably transfected CHO-K1 cells (human); assay: flow cytometry, CHO-K1 cells expressing human CD98
T4 construct: also called huCD98; CD98 heavy chain
T4 chain: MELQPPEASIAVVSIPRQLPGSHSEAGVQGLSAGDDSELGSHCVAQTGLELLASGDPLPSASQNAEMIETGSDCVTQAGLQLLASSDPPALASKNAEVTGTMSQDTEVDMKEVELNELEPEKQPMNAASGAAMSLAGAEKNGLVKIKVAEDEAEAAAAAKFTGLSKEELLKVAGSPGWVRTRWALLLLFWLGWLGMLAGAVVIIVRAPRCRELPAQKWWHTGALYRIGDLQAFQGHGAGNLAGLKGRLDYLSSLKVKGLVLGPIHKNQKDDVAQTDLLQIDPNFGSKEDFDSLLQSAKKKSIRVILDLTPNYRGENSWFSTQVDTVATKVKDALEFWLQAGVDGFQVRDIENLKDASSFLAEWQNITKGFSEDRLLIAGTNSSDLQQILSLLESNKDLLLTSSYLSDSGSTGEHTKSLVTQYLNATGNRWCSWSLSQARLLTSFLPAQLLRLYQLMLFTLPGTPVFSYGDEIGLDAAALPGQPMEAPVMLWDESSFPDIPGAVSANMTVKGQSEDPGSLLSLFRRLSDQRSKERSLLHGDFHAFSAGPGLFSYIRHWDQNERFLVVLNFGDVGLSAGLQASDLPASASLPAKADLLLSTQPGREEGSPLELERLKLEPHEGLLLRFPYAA
Experimental: as §1

B1: Recombinant anti-CD98 chimeric antibody chAb1 (antibody, human IgG1, V domains shown)
VH: EVKLVESGGGLVQPGGSLRLSCATSGFTFTDYYMSWVRQPPGKALEWLGFIRNPANVYTTEYSASVKGRFTISRDNSQSILYLQMNTLRAEDSATYYCARASYGNSEGWFAYWGQGTLVTVSA
VL: DIVMSQSPSSLAVSVGEKVTMSCKSSQNLLYNNNQKNYLAWYQQKPGQSPKLLIYWASTRESGVPDRFTGSGSGTDFTLTISSVKAEDLAVYYCQQYYSYPRTFGGGTKLEIK
EC50 [1]: 9.86 nM | Kd [2]: 0.21 nM | koff [2]: 1.5e-05 s⁻¹ | kon [2]: 68000 M⁻¹ s⁻¹ | Kd [3]: 0.8 nM | koff [3]: 2.2e-05 s⁻¹ | kon [3]: 28000 M⁻¹ s⁻¹ | EC50 [4]: 1.67 nM

B2: Recombinant anti-CD98 chimeric antibody chAb2 (antibody, human IgG1, V domains shown)
VH: EVKLVESGGGLVQPGGSLRLSCATSGFNFTDYYMSWVRQPPGKALEWLGFIRNKANGYTTEYSASVKGRFTISRDDSQSILYLQMNTLRAEDSATYYCARASYGNSEGWFAYWGQGTLVTVSA
VL: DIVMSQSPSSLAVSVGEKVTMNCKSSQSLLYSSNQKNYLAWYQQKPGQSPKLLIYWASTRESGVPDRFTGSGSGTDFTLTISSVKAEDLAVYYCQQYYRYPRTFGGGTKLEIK
EC50 [1]: 12.7 nM | Kd [2]: 1.6 nM | koff [2]: 9.6e-05 s⁻¹ | kon [2]: 59000 M⁻¹ s⁻¹ | Kd [3]: 58 nM | koff [3]: 0.0011 s⁻¹ | kon [3]: 19000 M⁻¹ s⁻¹ | EC50 [4]: 3.84 nM

B3: Recombinant anti-CD98 chimeric antibody chAb5 (antibody, human IgG1, V domains shown)
VH: EVKLVESGGGLVQPGGSLRLSCATSGFTFTDYYMTWVRQPPGKALEWLGFIRNKANGYTTEYSASVKGRFTISRDNSLSILYLQMNTLRAEDSATYYCARASYVNSEGWFAYWGQGTLVTVSA
VL: DIVMSQSPSSLAVSVGEKVTMSCKSSQSLLYSSNQKNYLAWYQQKLGQSPKLLIYWASTRESGVPDRFTGSGSGTDFTLTISSVKAEDLAVYYCQHYYSYPRTFGGGTKLEIK
EC50 [1]: 24.2 nM | Kd [2]: 7.5 nM | koff [2]: 0.0003 s⁻¹ | kon [2]: 40000 M⁻¹ s⁻¹ | Kd [3]: 25 nM | koff [3]: 0.00044 s⁻¹ | kon [3]: 18000 M⁻¹ s⁻¹ | EC50 [4]: 3.25 nM

B4: Recombinant anti-CD98 chimeric antibody chAb3 (antibody, human IgG1, V domains shown)
VH: EVKLVESGGGLVQPGNSLRLSCATSGFTFIDYYMSWVRQSPGKALEWLGFIRNKANGYTTEYSASVKGRFTISRDNSQSILYLQMDTLRAEDSATYYCTRDRPAWFVYWGQGTLVTVSA
VL: DIVMSQSPSSLAVSVGEKVTMSCKSSQSLLYSSNQKNYLAWYQQKPGQSPKLLIYWASTRESGVPDRFTGSGSGTDFTLTFSSVRAEDLAVYYCQQYYSYPYTFGGGTKLEIK
EC50 [1]: 9.87 nM | Kd [2]: 21 nM | koff [2]: 0.0034 s⁻¹ | kon [2]: 160000 M⁻¹ s⁻¹ | Kd [3]: 40 nM | koff [3]: 0.0016 s⁻¹ | kon [3]: 39000 M⁻¹ s⁻¹ | EC50 [4]: 2.02 nM

B5: Recombinant anti-CD98 chimeric antibody chAb4 (antibody, human IgG1, V domains shown)
VH: EVKLVESGGGLVQPGGSLRLSCTTSGFTFTDYYMSWVRQPPGKALEWLGFIRNKATIYTTEYSASVKGRFTISRDNSQSILYLQMNTLRAEDSATYYCARASYGNSEGWFAYWGQGTLVTVSA
VL: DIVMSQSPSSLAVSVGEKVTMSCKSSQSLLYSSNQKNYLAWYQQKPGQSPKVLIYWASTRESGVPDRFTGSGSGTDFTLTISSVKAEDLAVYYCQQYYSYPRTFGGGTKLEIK
EC50 [1]: 17.2 nM | Kd [2]: 2.8 nM | koff [2]: 7.8e-05 s⁻¹ | kon [2]: 28000 M⁻¹ s⁻¹ | Kd [3]: 8.3 nM | koff [3]: 7.3e-05 s⁻¹ | kon [3]: 8800 M⁻¹ s⁻¹ | EC50 [4]: 5.41 nM

B6: Recombinant anti-CD98 chimeric antibody chAb6 (antibody, human IgG1, V domains shown)
VH: QVQLKESGPGLAQPSQTLSLTCTVSGFSLSTYGVIWLRQPPGKGLEWMGVIWTNGNTNYNSTLKSRLSISRDTSESQVYLQMNSLQTEDTATYYCARHYYDGAYYYGYFDYWGQGVMVTVSS
VL: DIVMTQTPSSQAVSAGEKVTMSCKSSQSLLYSENKKNYLAWYQQKPGQSPKLLIYWASTRESGVPDRFIGSGSGTDFTLTISSVQAEDLAVYYCQQYYYFPYTFGAGTKLELK
EC50 [1]: 5.99 nM | Kd [2]: 1.3 nM | koff [2]: 0.00014 s⁻¹ | kon [2]: 110000 M⁻¹ s⁻¹ | Kd [3]: 7.9 nM | koff [3]: 0.00037 s⁻¹ | kon [3]: 47000 M⁻¹ s⁻¹ | EC50 [4]: 2.08 nM

B7: Recombinant anti-CD98 chimeric antibody chAb9 (antibody, human IgG1, V domains shown)
VH: QVQLKESGPGLVQPSQTLSLTCAVSGFSLSNYGVIWVRQPPGKGLEWMAVIWTNGNTNYNSTLKSRLSISRDTSKSQVYLKMNSLQTEDTATYYCARHYYDGTYYYGYFDYWGQGVMVTVSS
VL: DIVMTQTPSSQAVSAGEKVTMSCKSSQSLLYTENKKNYLAWYQQKPGQSPKLLIYWASTRESGVPDRFMGSGSGTDFTLTISSVQAEDLAVYYCQQYYYFPYMFGAGTKLELK
EC50 [1]: 11.1 nM | Kd [2]: 3.3 nM | koff [2]: 0.00024 s⁻¹ | kon [2]: 73000 M⁻¹ s⁻¹ | Kd [3]: 19 nM | koff [3]: 0.00063 s⁻¹ | kon [3]: 33000 M⁻¹ s⁻¹ | EC50 [4]: 8.55 nM

B8: Recombinant anti-CD98 chimeric antibody chAb13 (antibody, human IgG1, V domains shown)
VH: QVQLKESGPGLVQPSQTLSLTCTVSGFSLSSYGVIWVRQPPGKGLEWMGIIWANGNTNYNSALKSRLSISRDTSKSQVYLKMNSLQTEDTATYYCARHYYDGTHYYGYFDYWGQGVMVTVSS
VL: DTVMTQTPSSQAVSAGEKVTMSCKSSQSLLYSENKKKYLAWYQQKPGQSPKLLIYWASTRESGVPDRFIGSGSGTDFTLTISSVQAEDLAVYYCQQYYNFPYTFGAGTKLELK
notes: also called chAbl 3
EC50 [1]: 2.98 nM | Kd [2]: 1.2 nM | koff [2]: 0.00016 s⁻¹ | kon [2]: 130000 M⁻¹ s⁻¹ | Kd [3]: 7.1 nM | koff [3]: 0.00044 s⁻¹ | kon [3]: 62000 M⁻¹ s⁻¹ | EC50 [4]: 3.24 nM

B9: Recombinant anti-CD98 chimeric antibody chAb7 (antibody, human IgG1, V domains shown)
VH: QVQLKESGPGLVQPSQTLSLTCTVSGFSLSTYGVIWVRQPPGKGLEWMGVIWANGNTNYNSTLKSRLSISRDTSKSQVYLKMNSLQTEDTATYYCARHYYDGTYYYGYFDYWGQGVMVTVSS
VL: DIVMTQTPSSQAVSAGEKVTMNCKSSQSLLYSENKKNYLAWYQQKPGQSPKLLIYWASTRESGVPDRFIGSGSGTDFTLTISSVQAEDLAVYYCQQYYYFPYTFGPGTKLELK
EC50 [1]: 6.49 nM | Kd [2]: 0.45 nM | koff [2]: 6.2e-05 s⁻¹ | kon [2]: 140000 M⁻¹ s⁻¹ | Kd [3]: 3.5 nM | koff [3]: 0.00022 s⁻¹ | kon [3]: 63000 M⁻¹ s⁻¹ | EC50 [4]: 2.56 nM
